1 substance from publication PMC12774641 can be followed below.

The target of the experiment is SpβL1 Namat (nicotinamide ADP-ribose transferase), untagged (SpβL1 phage). The experiment is described as follows: mass photometry; Refeyn mass photometry; 50 nM Namat after gel filtration.

Regarding “SpβL1 Namat (nicotinamide ADP-ribose transferase), untagged (enzyme)”, the stoichiometry N (as a rule, the number of molecules, sites or subunits per partner or assembly) was 2.
